Assays:
[1] = biological target: T1, Brk phosphorylation of p27 (Homo sapiens, UniProt P46527+Q13882); test: In vitro Brk phosphorylation of p27 with competitor, pY88/pY74 immunoblot; format: biochemical; conditions: increasing amounts of competitor
T1 construct: were incubated with p27 before the addition of full length Brk and ATP; We incubated full length p27 with Src or Brk in the presence of ATP; purchased SignalChem (GST-PTK6/Brk) or Invitrogen (His-PTK6/Brk); host or cells: p27 made in house in E. coli
Procedure: FIGS. 3A-3D: SH3:PxxP interaction is required for p27 Y88 phosphorylation. (FIG. 3A) p27 and Brk were incubated with ATP and with increasing concentrations of the PxxP competitor, F58-106, followed by immunoblot analysis with pY88, pY74 and p27 antibodies. Lane 5: +equimolar amount of F58-106 and p27, lane 6: ++2.5×F58-106, lane 7: +++5×F58-106, lane 8: ++++10×F58-106. (FIG. 3B) GST-Brk, p27 and F58-106 were incubated, immunoprecipitated with GST antibodies, followed by immunblot analysis with GST or p27 antibodies. (FIG. 3C) Increasing amounts of GST-SH3, GST-SH2 or GST peptides were incubated with p27, followed by immunoblot analysis with pY88, pY74, p27 and GST antibodies. Lanes 3, 5, 7: 2.5× competitor, lanes 4, 6, […]: 5× competitor. (FIG. 3D) GST-SH3, GST-SH2 or GST peptides were incubated with p27 or ΔK1/K3, followed by metal agarose chromatography and immunoblot analysis with GST and p27 antibodies. Loading control: GST peptides added to the reaction which are not representative of association.
FIGS. 8A-8G: Alt Brk (SEQ ID NO: 17) acts as an endogenous inhibitor of Brk. […]
To directly verify this, we expressed a Flag-tagged Alt-Brk in bacteria and purified this 15 Kd protein (FIG. 8A). When p27 was incubated with Brk, Y88 and Y74 phosphorylation was detected by immunoblot analysis (FIG. 8A, lane 3). […]

[2] = biological target: T2, cdk2 (Homo sapiens, UniProt P24941); test: Immunoblot of cdk2T160 as measure of activated cdk2 (FIG. 10); format: cell-based; conditions: MCF7, drugs at IC50
T2 construct: added to or expressed in MCF7 breast cancer cells on day 2 post plating; endogenous in cells; host or cells: MCF7 (ALT-MCF7 tetracycline-inducible line)
Procedure: FIG. 10: ALT BRK inhibits both CDK4 and CDK2. ALT, Palbociclib alone or in combination were added to or expressed in MCF7 breast cancer cells on day 2 post plating. Drugs were added at their IC50 concentration, based on previous results. ALT is expressed from an ALT-MCF7 tetracycline inducible cell line generated in the Blain lab. When tetracycline is added to the cell culture media, ALT is expressed in these cells. Vector: no tetracycline was added, so no ALT induction was detected. Drugs and media were replaced every two days. Cells were harvested every two days, lysed and used in immunoblot analysis. Actin: loading control. pRBser780 is a phospho-specific antibody that recognizes sites phosphorylated by cdk4, so is a measure of active cdk4. cdk2T160 recognizes a required phosphorylation event on residue […] and is a measure of activated cdk2.
Additional experiments were performed assessing activity of Brk in combination with Palbociclib. The data presented in FIGS. 9A and 9B reveal that Palbociclib and Brk inhibit proliferation for 2 days, and then resistance is observed (proliferation increases). Alt maintained arrest for roughly 10 days (50% inhibition of proliferation is detected). […] Alt-Brk/Palbociclib combination leads to a more durable cell cycle arrest. Mono therapy treated cells start to become resistant between day 8-10. […]

[3] = biological target: T3, cdk4 (Homo sapiens, UniProt P11802); test: Immunoblot of pRBser780 as measure of active cdk4 (FIG. 10); format: cell-based; conditions: MCF7, drugs at IC50
T3 construct: added to or expressed in MCF7 breast cancer cells on day 2 post plating; endogenous in cells; host or cells: MCF7 (ALT-MCF7 tetracycline-inducible line)
T3 sequence (P11802 2-303 limits assumed): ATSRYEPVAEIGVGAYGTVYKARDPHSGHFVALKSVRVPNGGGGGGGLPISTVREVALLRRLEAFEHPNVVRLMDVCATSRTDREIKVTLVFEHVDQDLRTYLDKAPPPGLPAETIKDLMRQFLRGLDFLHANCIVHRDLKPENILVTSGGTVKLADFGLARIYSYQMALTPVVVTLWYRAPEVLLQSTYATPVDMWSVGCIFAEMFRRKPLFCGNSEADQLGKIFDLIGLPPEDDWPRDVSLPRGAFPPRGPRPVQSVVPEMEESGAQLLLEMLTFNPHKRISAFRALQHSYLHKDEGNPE
T3 sequence (P24385 whole entry partner): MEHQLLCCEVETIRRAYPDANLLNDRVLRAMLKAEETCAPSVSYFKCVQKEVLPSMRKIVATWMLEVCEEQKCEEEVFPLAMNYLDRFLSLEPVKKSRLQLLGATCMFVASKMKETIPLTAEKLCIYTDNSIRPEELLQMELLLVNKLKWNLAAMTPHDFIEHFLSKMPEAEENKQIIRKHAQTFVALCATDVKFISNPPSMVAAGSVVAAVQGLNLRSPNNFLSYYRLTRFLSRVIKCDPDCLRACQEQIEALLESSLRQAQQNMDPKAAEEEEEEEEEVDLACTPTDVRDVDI
Procedure: ALT, Palbociclib alone or in combination were added to or expressed in MCF7 breast cancer cells on day 2 post plating. […] ALT is expressed from an ALT-MCF7 tetracycline inducible cell line generated in the Blain lab. When tetracycline is added to the cell culture media, ALT is expressed in these cells. Vector: no tetracycline was added, so no ALT induction was detected. Drugs and media were replaced every two days. Cells were harvested every two days, lysed and used in immunoblot analysis.

T1 sequence (Q13882 whole entry): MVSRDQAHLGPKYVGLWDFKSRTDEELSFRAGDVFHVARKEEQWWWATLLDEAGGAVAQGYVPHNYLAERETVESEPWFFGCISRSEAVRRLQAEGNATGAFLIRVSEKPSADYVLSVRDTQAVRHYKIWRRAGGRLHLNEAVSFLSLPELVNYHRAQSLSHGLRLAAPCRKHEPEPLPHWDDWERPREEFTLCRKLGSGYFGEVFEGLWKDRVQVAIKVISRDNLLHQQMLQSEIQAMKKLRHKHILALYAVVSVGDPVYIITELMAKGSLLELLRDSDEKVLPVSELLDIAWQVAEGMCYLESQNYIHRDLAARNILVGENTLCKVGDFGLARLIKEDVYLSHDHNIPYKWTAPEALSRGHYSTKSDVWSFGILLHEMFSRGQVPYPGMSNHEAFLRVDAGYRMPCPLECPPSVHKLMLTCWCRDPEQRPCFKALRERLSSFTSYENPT
T1 sequence (P46527 whole entry): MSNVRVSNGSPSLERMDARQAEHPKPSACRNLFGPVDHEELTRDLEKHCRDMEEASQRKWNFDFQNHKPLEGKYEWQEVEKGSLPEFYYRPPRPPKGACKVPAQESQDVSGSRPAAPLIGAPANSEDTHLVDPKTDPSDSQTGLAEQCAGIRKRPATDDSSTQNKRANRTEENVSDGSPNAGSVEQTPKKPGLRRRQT

- p27 Y74 phosphorylation by Brk [1]: not affected
- p27 Y88 phosphorylation by Brk [1]: decreased
- cdk2 activity (cdk2T160) [2]: inhibits cdk2
- cdk4 activity (pRBser780) [3]: inhibits cdk4
B1: Alt-Brk: alternative splice variant of Brk (SEQ ID NO: 17), 15 KD protein with SH3 domain, lacks kinase domain (protein, listed as Homo sapiens)
chain: MVSRDQAHLGPKYVGLWDFKSRTDEELSFRAGDVFHVARKEEQWWWATLLDEAGGAVAQGYVPHNYLAERETVESEPAGHAGCAALQDLAACRGPAAPERGGVLPQPARACELPQGPEPVPRPAAGRALPEARA

From US11260100B2, “Compositions targeting the interaction domain between p27Kip1 and Brk and methods of use thereof to inhibit p27 Y phosphorylation and cdk4 activity” (The Research Foundation for the State University of New York, priority 2014, dated 2022)
